The record followed here is patent publication US20110117113A1, “IMMUNOGLOBULIN SINGLE VARIABLE DOMAIN DIRECTED AGAINST HUMAN CXCR4 AND OTHER CELL ASSOCIATED PROTEINS AND METHODS TO GENERATE THEM” (priority 2009, published 2011).

Common to all, as to test: Shotgun mutagenesis epitope mapping, immunofluorescence on CXCR4 mutation library in HEK-293T
Format in all cases: binding

In assay [1] the target is T1, CXCR4 mutation library (Human CXCR4-short) (Homo sapiens, UniProt P61073, P191T).
T1 construct: expressed in transfected cells; host or cells: HEK-293T, transient, 384-well
T1 sequence (P61073 whole entry P191T): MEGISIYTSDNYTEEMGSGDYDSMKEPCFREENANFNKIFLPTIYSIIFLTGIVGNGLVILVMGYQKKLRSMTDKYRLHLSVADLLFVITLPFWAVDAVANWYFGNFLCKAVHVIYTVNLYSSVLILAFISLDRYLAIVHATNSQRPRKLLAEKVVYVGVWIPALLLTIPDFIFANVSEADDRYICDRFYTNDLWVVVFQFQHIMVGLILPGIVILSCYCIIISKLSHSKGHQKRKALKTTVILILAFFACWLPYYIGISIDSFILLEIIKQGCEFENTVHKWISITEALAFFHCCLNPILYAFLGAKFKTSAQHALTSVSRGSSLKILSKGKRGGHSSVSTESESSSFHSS
The conditions noted are these: residue P191; mutation P191T; normalized to wild type; 3 experiments (+/−range); 238D2 critical residues under high stringency. The source says:
(§1) Method: See e.g. Willis, et al. 2008. Virus-like particles as quantitative probes of membrane protein interactions. Biochemistry 47:6988-6990. In short, the method comprises the following steps:
(§2) Create comprehensive mutation library • Start with a cDNA in eukaryotic expression plasmid • Create library where every amino acid is individually mutated
(§3) Express each clone within living cells in 384-well microplates
(§4) Detect structure and/or function of proteins
(§5) • Parental plasmid: Human CXCR4-short (SEQ ID NO: 6, 352 amino acids) • Epitope tags: N-terminal Flag (to detect surface expression), C-terminal V5 (to detect full-length translation) • Cell types used for immunofluorescence assays: HEK-293T
(§6) The immunofluorescence assay conditions (to detect binding) were optimized for the nanbodies to be tested. In short, 384-well immunofluorescence (IF) assay using HEK-293T cells transiently was transfected with different concentrations of CXCR4 DNA. The plate was first incubated with different concentrations of either Nanobody 238D2 or 238D4, then with 9E10, and finally with Cy3. The commercially-available anti-CXCR4 MAb 12G5 was used as an IF control.
(§7) Mapping Nanobody Binding to CXCR4 Mutation Library: The entire library was screened in triplicate with each Nanobody. The data was background-subtracted and normalized to wild type reactivity and averaged across the repeats. Nanobody binding was plotted as a function of average surface expression, and measured by immunoreactivity of an N-terminal Flag epitope tag. Thresholds of 60% Flag and 30% Nanobody were used to identify critical clones. Using standard IF conditions, we identified 1 critical residue (2 critical clones). Using increased stringency assay conditions (high salt), we identified 5 additional residues (Tables C-3 and C-4).

The target in assay [2] is T2, CXCR4 mutation library (Human CXCR4-short) (Homo sapiens, UniProt P61073, E277A/I245V/N298S).
T2 construct: expressed in transfected cells; host or cells: HEK-293T, transient, 384-well
T2 sequence (P61073 whole entry I245V/E277A/N298S): as the sequence (P61073 whole entry P191T) above, with T191P, I245V, E277A, N298S counted along it
Particulars: residue E277; mutations E277A, I245V, N298S; normalized to wild type; 3 experiments (+/−range); 238D2 critical residues under high stringency.
Source text: as §1, §2, §3, §4, §5, §6, §7

Assay [3] deals with T3, CXCR4 mutation library (Human CXCR4-short) (Homo sapiens, UniProt P61073, C218R/E179V/S351T).
T3 construct: expressed in transfected cells; host or cells: HEK-293T, transient, 384-well
T3 sequence (P61073 whole entry E179V/C218R/S351T): as the sequence (P61073 whole entry P191T) above, with E179V, T191P, C218R, S351T counted along it
The conditions noted are these: residue E179; mutations C218R, E179V, S351T; normalized to wild type; 3 experiments (+/−range).
Source text: as §1, §2, §3, §4, §5, §6, §7

For assay [4], the target named is T4, CXCR4 mutation library (Human CXCR4-short) (Homo sapiens, UniProt P61073, E277G).
T4 construct: expressed in transfected cells; host or cells: HEK-293T, transient, 384-well
T4 sequence (P61073 whole entry E277G): as the sequence (P61073 whole entry P191T) above, with T191P, E277G counted along it
The conditions noted are these: residue E277; mutation E277G; normalized to wild type; 3 experiments (+/−range); 238D2 critical residues under high stringency.
Source text: as §1, §2, §3, §4, §5, §6, §7

The target of assay [5] is T5, CXCR4 mutation library (Human CXCR4-short) (Homo sapiens, UniProt P61073, K230E/S178R).
T5 construct: expressed in transfected cells; host or cells: HEK-293T, transient, 384-well
T5 sequence (P61073 whole entry S178R/K230E): as the sequence (P61073 whole entry P191T) above, with S178R, T191P, K230E counted along it
The conditions noted are these: residue S178; mutations K230E, S178R; normalized to wild type; 3 experiments (+/−range).
Source text: as §1, §2, §3, §4, §5, §6, §7

Assay [6] has as its target T6, CXCR4 mutation library (Human CXCR4-short) (Homo sapiens, UniProt P61073, E179V/G258E).
T6 construct: expressed in transfected cells; host or cells: HEK-293T, transient, 384-well
Particulars: residue E179; mutations E179V, G258E; normalized to wild type; 3 experiments (+/−range).
Source text: as §1, §2, §3, §4, §5, §6, §7

In assay [7] the test system is CXCR4 mutation library (Human CXCR4-short).
Source text: as §1, §2, §3, §4, §5, §6, §7

Assay [8] concerns the target T7, CXCR4 mutation library (Human CXCR4-short) (Homo sapiens, UniProt P61073, P163L/S178I).
T7 construct: expressed in transfected cells; host or cells: HEK-293T, transient, 384-well
Particulars: residue S178; mutations P163L, S178I; normalized to wild type; 3 experiments (+/−range).
Source text: as §1, §2, §3, §4, §5, §6, §7

Assay [9] addresses T8, CXCR4 mutation library (Human CXCR4-short) (Homo sapiens, UniProt P61073, N192K).
T8 construct: expressed in transfected cells; host or cells: HEK-293T, transient, 384-well
The conditions noted are these: residue N192; mutation N192K; normalized to wild type; 3 experiments (+/−range); 238D2 critical residues under high stringency.
Source text: as §1, §2, §3, §4, §5, §6, §7

In assay [10] the target is T9, CXCR4 mutation library (Human CXCR4-short) (Homo sapiens, UniProt P61073, F189S/K308R).
T9 construct: expressed in transfected cells; host or cells: HEK-293T, transient, 384-well
T9 sequence (P61073 whole entry F189S/K308R): as the sequence (P61073 whole entry P191T) above, with F189S, T191P, K308R counted along it
Particulars: residue F189; mutations F189S, K308R; normalized to wild type; 3 experiments (+/−range).
Source text: as §1, §2, §3, §4, §5, §6, §7

Assay [11] concerns the target T10, CXCR4 mutation library (Human CXCR4-short) (Homo sapiens, UniProt P61073, W195R).
T10 construct: expressed in transfected cells; host or cells: HEK-293T, transient, 384-well
Particulars: residue W195; mutation W195R; normalized to wild type; 3 experiments (+/−range); 238D2 critical residues under high stringency.
Source text: as §1, §2, §3, §4, §5, §6, §7

Assay [12] deals with T11, CXCR4 mutation library (Human CXCR4-short) (Homo sapiens, UniProt P61073, F189V).
T11 construct: expressed in transfected cells; host or cells: HEK-293T, transient, 384-well
T11 sequence (P61073 whole entry F189V): as the sequence (P61073 whole entry P191T) above, with F189V, T191P counted along it
Particulars: residue F189; mutation F189V; normalized to wild type; 3 experiments (+/−range).
Source text: as §1, §2, §3, §4, §5, §6, §7

Assay [13] deals with T12, CXCR4 mutation library (Human CXCR4-short) (Homo sapiens, UniProt P61073, V196E).
T12 construct: expressed in transfected cells; host or cells: HEK-293T, transient, 384-well
T12 sequence (P61073 whole entry V196E): as the sequence (P61073 whole entry P191T) above, with T191P, V196E counted along it
The conditions noted are these: residue V196; mutation V196E; normalized to wild type; 3 experiments (+/−range); 238D2 critical residues under high stringency.
Source text: as §1, §2, §3, §4, §5, §6, §7

In assay [14] the target is T13, CXCR4 mutation library (Human CXCR4-short) (Homo sapiens, UniProt P61073, S178C).
T13 construct: expressed in transfected cells; host or cells: HEK-293T, transient, 384-well
T13 sequence (P61073 whole entry S178C): as the sequence (P61073 whole entry P191T) above, with S178C, T191P counted along it
The conditions noted are these: residue S178; mutation S178C; normalized to wild type; 3 experiments (+/−range).
Source text: as §1, §2, §3, §4, §5, §6, §7

In assay [15] the target is T14, CXCR4 mutation library (Human CXCR4-short) (Homo sapiens, UniProt P61073, D187V).
T14 construct: expressed in transfected cells; host or cells: HEK-293T, transient, 384-well
T14 sequence (P61073 whole entry D187V): as the sequence (P61073 whole entry P191T) above, with D187V, T191P counted along it
The conditions noted are these: residue D187; mutation D187V; normalized to wild type; 3 experiments (+/−range).
Source text: as §1, §2, §3, §4, §5, §6, §7

T6 sequence (P61073 whole entry E179V/G258E): as the sequence (P61073 whole entry P191T) above, with E179V, T191P, G258E counted along it
T7 sequence (P61073 whole entry P163L/S178I): as the sequence (P61073 whole entry P191T) above, with P163L, S178I, T191P counted along it
T10 sequence (P61073 whole entry W195R): as the sequence (P61073 whole entry P191T) above, with T191P, W195R counted along it
T8 sequence (P61073 whole entry N192K): as the sequence (P61073 whole entry P191T) above, with T191P, N192K counted along it

B1: 238D2: monovalent anti CXCR4 Nanobody, SEQ ID NO: 2 (protein)
VHH: EVQLVESGGGLVQTGGSLRLSCAASGFTFSSYAMSWVRQAPGKGLEWVSGIKSSGDSTRYAGSVKGRFTISRDNAKNMLYLQMYSLKPEDTAVYYCAKSRVSRTGLYTYDNRGQGTQVTVSS
modifications: Nanobody
Regarding B1, the “% immunofluoresence, clone 2184” value in [1] is recorded as 15.8 (5.4) %. Also, in assay [2], the “% immunofluoresence, clone 185” value is given as 35.5 (12.3) %. Moreover, the “% immunofluoresence, clone 414” value in assay [3] is on record as 71.1 (6.7) %. Moreover, the “% immunofluoresence, clone 3622” value in assay [4] is listed as 19.5 (11.9) %. Further, the “% immunofluoresence, clone 1057” value in assay [5] is listed as 54.6 (5.8) %. The “% immunofluoresence, clone 2834” value in assay [6] is given as 84.6 (7.8) %. The “average nanobody reactivity, residue N192” value in assay [7] (all clones containing a mutation at N192, * high stringency conditions) was 8.3*. Moreover, in [7] (all clones containing a mutation at P191, * high stringency conditions), the “average nanobody reactivity, residue P191” value is 15.8*. Besides, the “average nanobody reactivity, residue V196” value in assay [7] (all clones containing a mutation at V196, * high stringency conditions) was 20.6*. In assay [7] (all clones containing a mutation at W195, * high stringency conditions), the “average nanobody reactivity, residue W195” value was 10.0*. The “average nanobody reactivity, residue E277” value in assay [7] (average of all clones containing a mutation at E277, * high stringency conditions) is given as 27.5*. The “average nanobody reactivity, residue F189” value in [7] (average of all clones containing a mutation at F189) is listed as −0.9. In addition, the “% immunofluoresence, clone 709” value in assay [8] is 64.1 (19.6) %. Moreover, the “% immunofluoresence, clone 914” value in assay [9] was 8.3 (3.6) %. The “% immunofluoresence, clone 913” value in assay [10] is −32.6 (18.7) %. The “% immunofluoresence, clone 3630” value in [11] was 10.0 (10.4) %. For the same molecule, the “% immunofluoresence, clone 1129” value in assay [12] is reported as −1.9 (24.2) %. Besides, the “% immunofluoresence, clone 2270” value in assay [13] is on record as 20.6 (32.9) %. Further, the “% immunofluoresence, clone 2396” value in [14] is on record as 44.9 (13.4) %. Moreover, the “% immunofluoresence, clone 2084” value in assay [15] is given as 93.6 (5.2) %.
